Assay results as given in US20030092613A1, “Alpha7 nicotinic receptor peptides as ligands for beta amyloid peptides” (priority 2000, published 2003).

Target: β-amyloid1-42 (UniProt P05067)
Test: cell-based or functional assay

Ac-SERFYECCKEP-NH2 (also: cyclic, bridge not given here) [cyclic peptide (Ac)…-amide]
ACh rel % Inh @ 100 µM: 81%
Inh ACh rel IC50: 0.316 µM
